The subject of data set [1] is HeLa Kyoto. Kind of data set: melting temperature (median over replicates), in situ; higher = more thermally stable.
The test system of data set [2] is HeLa Kyoto. Kind of data set: solubility change mitosis vs G1/S (difference of NP-40 vs SDS log2 ratios) (log2 ratio difference); higher = more soluble in mitosis.
Data set [3] relates to HeLa Kyoto. Kind of data set: solubility in G1/S (NP-40 vs SDS abundance) (log2 ratio); higher = more soluble. The note with it: cell cycle stage: G1/S.
Data set [4] concerns HeLa Kyoto. Kind of data set: thermal stability score vs G1/S (z-score of summed log2 fold changes over temperatures); higher = more thermally stable than in G1/S.
Where [5] appears, read: cell cycle stage: early G1 (4.5 h after nocodazole release).
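For melting temperature (median over replicates), in situ in this document: HeLa Kyoto cells synchronized by double thymidine or nocodazole block, proteins quantified by TMT10plex mass spectrometry, three independent biological replicates.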
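For solubility change mitosis vs G1/S (difference of NP-40 vs SDS log2 ratios) in this document: synchronized HeLa Kyoto cells (double thymidine block for G1/S, nocodazole release for mitosis), protein amounts in NP-40 versus SDS lysates quantified by mass spectrometry, three biological replicates.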
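For solubility in G1/S (NP-40 vs SDS abundance) in this document: HeLa Kyoto cells arrested at G1/S by double thymidine block, proteins quantified by TMT10plex mass spectrometry in mild NP-40 versus SDS extracts, three biological replicates.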
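For thermal stability score vs G1/S (z-score of summed log2 fold changes over temperatures) in this document: synchronized HeLa Kyoto cells, proteins quantified by TMT10plex mass spectrometry, three biological replicates, mitosis taken 0.5 h after nocodazole release, G1/S directly after double thymidine block.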

Consider “MGLTKQYLRYVASAVFGVIGSQKGNIVFVTLRGEKGRYVAVPACEHVFIWDLRKGEKILILQGLKQEVTCLCPSPDGLHLAVGYEDGSIRIFSLLSGEGNVTFNGHKAAITTLKYDQLGGRLASGSKDTDIIVWDVINESGLYRLKGHKDAITQALFLREKNLLVTSGKDTMVKWWDLDTQHCFKTMVGHRTEVWGLVLLSEEKRLITGASDSELRVWDIAYLQEIEDPEEPDPKKIKGSSPGIQDTLEAEDGAFETDEAPEDRILSCRKAGSIMREGRDRVVNLAVDKTGRILACHGTDSVLELFCILSKKEIQKKMDKKMKKARKKAKLHSSKGEEEDPEVNVEMSLQDEIQRVTNIKTSAKIKSFDLIHSPHGELKAVFLLQNNLVELYSLNPSLPTPQPVRTSRITIGGHRSDVRTLSFSSDNIAVLSAAADSIKIWNRSTLQCIRTMTCEYALCSFFVPGDRQVVIGTKTGKLQLYDLASGNLLETIDAHDGALWSMSLSPDQRGFVTGGADKSVKFWDFELVKDENSTQKRLSVKQTRTLQLDEDVLCVSYSPNQKLLAVSLLDCTVKIFYVDTLKFFLSLYGHKLPVICMDISHDGALIATGSADRNVKIWGLDFGDCHKSLFAHDDSVMYLQFVPKSHLFFTAGKDHKIKQWDADKFEHIQTLEGHHQEIWCLAVSPSGDYVVSSSHDKSLRLWERTREPLILEEEREMEREAEYEESVAKEDQPAVPGETQGDSYFTGKKTIETVKAAERIMEAIELYREETAKMKEHKAICKAAGKEVPLPSNPILMAYGSISPSAYVLEIFKGIKSSELEESLLVLPFSYVPDILKLFNEFIQLGSDVELICRCLFFLLRIHFGQITSNQMLVPVIEKLRETTISKVSQVRDVIGFNMAGLDYLKRECEAKSEVMFFADATSHLEEKKRKRKKREKLILTLT [WDR3]”, for which the melting temperature in the data set on HeLa Kyoto [1] (cell cycle stage: G1/S) was found to be 50.2 °C; in the data set on HeLa Kyoto [1] (cell cycle stage: mitosis) it was 50.9 °C. Also, in the data set with HeLa Kyoto [2], the “solubility change mitosis (log2)” value stood at 0.614. In addition, the “solubility in G1/S (log2)” value in the data set on HeLa Kyoto [3] is -1.64. Also, the results for the thermal stability score with HeLa Kyoto [4] (setting [5]) and in the data set with HeLa Kyoto [4] (cell cycle stage: mitosis) were 2.25 and 3.44, respectively.

With “MGNSALRAHVETAQKTGVFQLKDRGLTEFPADLQKLTSNLRTIDLSNNKIESLPPLLIGKFTLLKSLSLNNNKLTVLPDEICNLKKLETLSLNNNHLRELPSTFGQLSALKTLSLSGNQLGALPPQLCSLRHLDVMDLSKNQIRSIPDSVGELQVIELNLNQNQISQISVKISCCPRLKILRLEENCLELSMLPQSILSDSQICLLAVEGNLFEIKKLRELEGYDKYMERFTATKKKFA [LRRC57]”, the melting temperature in the data set on HeLa Kyoto [1] (cell cycle stage: G1/S) stood at 53.2 °C; in the data set with HeLa Kyoto [1] (cell cycle stage: mitosis) it was 53.6 °C. Also, the “solubility change mitosis (log2)” value with HeLa Kyoto [2] was determined as 0.00239. The “solubility in G1/S (log2)” value in the data set on HeLa Kyoto [3] was determined as 0.266. Further, the thermal stability score is -0.373 in the data set with HeLa Kyoto [4] (setting [5]) and -0.56 with HeLa Kyoto [4] (cell cycle stage: mitosis).

As to “MGNVLAASSPPAGPPPPPAPALVGLPPPPPSPPGFTLPPLGGSLGAGTSTSRSSERTPGAATASASGAAEDGACGCLPNPGTFEECHRKCKELFPIQMEGVKLTVNKGLSNHFQVNHTVALSTIGESNYHFGVTYVGTKQLSPTEAFPVLVGDMDNSGSLNAQVIHQLGPGLRSKMAIQTQQSKFVNWQVDGEYRGSDFTAAVTLGNPDVLVGSGILVAHYLQSITPCLALGGELVYHRRPGEEGTVMSLAGKYTLNNWLATVTLGQAGMHATYYHKASDQLQVGVEFEASTRMQDTSVSFGYQLDLPKANLLFKGSVDSNWIVGATLEKKLPPLPLTLALGAFLNHRKNKFQCGFGLTIG [TOMM40]”, the results for the melting temperature with HeLa Kyoto [1] (cell cycle stage: G1/S) and with HeLa Kyoto [1] (cell cycle stage: mitosis) were 62.9 °C and 61.7 °C, respectively. For the same sequence, the “solubility change mitosis (log2)” value in the data set with HeLa Kyoto [2] is -0.17. The “solubility in G1/S (log2)” value in the data set on HeLa Kyoto [3] was 0.262. Besides, the thermal stability score in the data set with HeLa Kyoto [4] (setting [5]) is -1.53; in the data set with HeLa Kyoto [4] (cell cycle stage: mitosis) it was -3.48.

Consider “MGPAPAGEQLRGATGEPEVMEPALEGTGKEGKKASSRKRTLAEPPAKGLLQPVKLSRAELYKEPTNEELNRLRETEILFHSSLLRLQVEELLKEVRLSEKKKDRIDAFLREVNQRVVRVPSVPETELTDQAWLPAGVRVPLHQVPYAVKGCFRFLPPAQVTVVGSYLLGTCIRPDINVDVALTMPREILQDKDGLNQRYFRKRALYLAHLAHHLAQDPLFGSVCFSYTNGCHLKPSLLLRPRGKDERLVTVRLHPCPPPDFFRPCRLLPTKNNVRSAWYRGQSPAGDGSPEPPTPRYNTWVLQDTVLESHLQLLSTILSSAQGLKDGVALLKVWLRQRELDKGQGGFTGFLVSMLVVFLVSTRKIHTTMSGYQVLRSVLQFLATTDLTVNGISLCLSSDPSLPALADFHQAFSVVFLDSSGHLNLCADVTASTYHQVQHEARLSMMLLDSRADDGFHLLLMTPKPMIRAFDHVLHLRPLSRLQAACHRLKLWPELQDNGGDYVSAALGPLTTLLEQGLGARLNLLAHSRPPVPEWDISQDPPKHKDSGTLTLGLLLRPEGLTSVLELGPEADQPEAAKFRQFWGSRSELRRFQDGAIREAVVWEAASMSQKRLIPHQVVTHLLALHADIPETCVHYVGGPLDALIQGLKETSSTGEEALVAAVRCYDDLSRLLWGLEGLPLTVSAVQGAHPVLRYTEVFPPTPVRPAFSFYETLRERSSLLPRLDKPCPAYVEPMTVVCHLEGSGQWPQDAEAVQRVRAAFQLRLAELLTQQHGLQCRATATHTDVLKDGFVFRIRVAYQREPQILKEVQSPEGMISLRDTAASLRLERDTRQLPLLTSALHGLQQQHPAFSGVARLAKRWVRAQLLGEGFADESLDLVAAALFLHPEPFTPPSSPQVGFLRFLFLVSTFDWKNNPLFVNLNNELTVEEQVEIRSGFLAARAQLPVMVIVTPQDRKNSVWTQDGPSAQILQQLVVLAAEALPMLEKQLMDPRGPGDIRTVFRPPLDIYDVLIRLSPRHIPRHRQAVDSPAASFCRGLLSQPGPSSLMPVLGYDPPQLYLTQLREAFGDLALFFYDQHGGEVIGVLWKPTSFQPQPFKASSTKGRMVMSRGGELVMVPNVEAILEDFAVLGEGLVQTVEARSERWTV [NOL6]”, for which the melting temperature with HeLa Kyoto [1] (cell cycle stage: G1/S) was 52.4 °C; with HeLa Kyoto [1] (cell cycle stage: mitosis), 51.4 °C. Besides, the “solubility change mitosis (log2)” value with HeLa Kyoto [2] was 0.851. For the same sequence, the “solubility in G1/S (log2)” value in the data set on HeLa Kyoto [3] is -1.58. Besides, the figures for the thermal stability score with HeLa Kyoto [4] (setting [5]) and with HeLa Kyoto [4] (cell cycle stage: mitosis) were -1.55 and -1.79, respectively.

The record behind these values is the supplement of paper PMC5998384.
